Legend:
[1] = molecular target: T1, human beta-Klotho (KLB) (human, UniProt Q86Z14 53-997); assay: BLI off-rate screening, mAb captured, KLB analyte;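 note: Off-rate taken from the dissociation phase, biosensors held in D-PBS with 0.1% BSA over 1800 s, antibody supernatants diluted to 25 µg/mL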
T1 construct: bought protein, used as analyte in the off-rate screening; also called human KLB; β-Klotho
T1 sequence (looked up): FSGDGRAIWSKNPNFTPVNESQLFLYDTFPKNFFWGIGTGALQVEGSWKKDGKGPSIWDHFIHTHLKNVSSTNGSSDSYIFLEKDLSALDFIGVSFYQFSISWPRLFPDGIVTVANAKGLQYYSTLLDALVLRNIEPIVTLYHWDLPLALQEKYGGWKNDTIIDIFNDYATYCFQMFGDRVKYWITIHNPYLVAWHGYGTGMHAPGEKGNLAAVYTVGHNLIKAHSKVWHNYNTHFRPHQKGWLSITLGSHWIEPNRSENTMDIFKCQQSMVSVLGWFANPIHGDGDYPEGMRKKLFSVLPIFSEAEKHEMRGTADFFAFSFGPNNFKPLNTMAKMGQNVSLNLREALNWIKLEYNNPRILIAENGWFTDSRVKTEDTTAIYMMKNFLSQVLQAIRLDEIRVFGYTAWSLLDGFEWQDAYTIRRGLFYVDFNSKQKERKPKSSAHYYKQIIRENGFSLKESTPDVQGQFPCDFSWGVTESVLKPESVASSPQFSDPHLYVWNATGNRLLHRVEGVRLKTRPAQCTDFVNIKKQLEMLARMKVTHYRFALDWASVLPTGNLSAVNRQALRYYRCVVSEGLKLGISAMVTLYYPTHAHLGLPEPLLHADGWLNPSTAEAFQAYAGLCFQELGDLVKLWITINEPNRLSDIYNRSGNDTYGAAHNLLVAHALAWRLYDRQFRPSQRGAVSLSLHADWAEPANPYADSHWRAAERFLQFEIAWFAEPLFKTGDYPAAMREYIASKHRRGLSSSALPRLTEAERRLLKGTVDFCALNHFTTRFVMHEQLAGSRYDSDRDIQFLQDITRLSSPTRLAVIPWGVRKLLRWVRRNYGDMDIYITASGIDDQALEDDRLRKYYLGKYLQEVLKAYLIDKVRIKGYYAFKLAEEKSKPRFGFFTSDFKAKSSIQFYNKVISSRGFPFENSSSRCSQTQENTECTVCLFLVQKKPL

[2] = molecular target: human FGFR1c/KLB receptor complex on iLite FGF21 Assay Ready Cells (human, UniProt P11362 22-822; Q86Z14 1-1044); assay: cell-based or functional assay; for Mean E max (%): reference of the scale not given here
Chain of human FGFR1c/KLB receptor complex on iLite FGF21 Assay Ready Cells (P11362 22-822, chain 1 of 2): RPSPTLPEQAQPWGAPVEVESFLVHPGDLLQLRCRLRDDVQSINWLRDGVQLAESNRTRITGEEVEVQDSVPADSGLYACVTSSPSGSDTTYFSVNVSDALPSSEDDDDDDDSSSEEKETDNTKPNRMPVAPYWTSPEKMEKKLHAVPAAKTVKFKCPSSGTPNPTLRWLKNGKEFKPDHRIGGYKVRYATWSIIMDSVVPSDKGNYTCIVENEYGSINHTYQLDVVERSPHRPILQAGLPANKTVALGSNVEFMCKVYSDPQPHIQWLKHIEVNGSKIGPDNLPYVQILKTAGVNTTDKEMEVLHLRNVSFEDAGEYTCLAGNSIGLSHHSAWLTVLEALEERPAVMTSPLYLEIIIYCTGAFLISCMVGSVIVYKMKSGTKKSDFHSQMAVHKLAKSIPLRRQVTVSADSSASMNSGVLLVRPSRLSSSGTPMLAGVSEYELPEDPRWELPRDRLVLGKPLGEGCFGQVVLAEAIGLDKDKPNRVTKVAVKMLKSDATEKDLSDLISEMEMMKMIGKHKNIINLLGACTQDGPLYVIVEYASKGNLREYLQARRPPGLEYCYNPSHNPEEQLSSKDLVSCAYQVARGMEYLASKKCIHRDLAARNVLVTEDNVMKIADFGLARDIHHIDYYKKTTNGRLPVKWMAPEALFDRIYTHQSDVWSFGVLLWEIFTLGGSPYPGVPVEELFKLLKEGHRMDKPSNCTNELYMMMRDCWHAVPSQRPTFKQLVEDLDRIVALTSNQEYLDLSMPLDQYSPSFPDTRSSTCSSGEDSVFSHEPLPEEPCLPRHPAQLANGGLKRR
Chain of human FGFR1c/KLB receptor complex on iLite FGF21 Assay Ready Cells (Q86Z14 whole entry, chain 2 of 2): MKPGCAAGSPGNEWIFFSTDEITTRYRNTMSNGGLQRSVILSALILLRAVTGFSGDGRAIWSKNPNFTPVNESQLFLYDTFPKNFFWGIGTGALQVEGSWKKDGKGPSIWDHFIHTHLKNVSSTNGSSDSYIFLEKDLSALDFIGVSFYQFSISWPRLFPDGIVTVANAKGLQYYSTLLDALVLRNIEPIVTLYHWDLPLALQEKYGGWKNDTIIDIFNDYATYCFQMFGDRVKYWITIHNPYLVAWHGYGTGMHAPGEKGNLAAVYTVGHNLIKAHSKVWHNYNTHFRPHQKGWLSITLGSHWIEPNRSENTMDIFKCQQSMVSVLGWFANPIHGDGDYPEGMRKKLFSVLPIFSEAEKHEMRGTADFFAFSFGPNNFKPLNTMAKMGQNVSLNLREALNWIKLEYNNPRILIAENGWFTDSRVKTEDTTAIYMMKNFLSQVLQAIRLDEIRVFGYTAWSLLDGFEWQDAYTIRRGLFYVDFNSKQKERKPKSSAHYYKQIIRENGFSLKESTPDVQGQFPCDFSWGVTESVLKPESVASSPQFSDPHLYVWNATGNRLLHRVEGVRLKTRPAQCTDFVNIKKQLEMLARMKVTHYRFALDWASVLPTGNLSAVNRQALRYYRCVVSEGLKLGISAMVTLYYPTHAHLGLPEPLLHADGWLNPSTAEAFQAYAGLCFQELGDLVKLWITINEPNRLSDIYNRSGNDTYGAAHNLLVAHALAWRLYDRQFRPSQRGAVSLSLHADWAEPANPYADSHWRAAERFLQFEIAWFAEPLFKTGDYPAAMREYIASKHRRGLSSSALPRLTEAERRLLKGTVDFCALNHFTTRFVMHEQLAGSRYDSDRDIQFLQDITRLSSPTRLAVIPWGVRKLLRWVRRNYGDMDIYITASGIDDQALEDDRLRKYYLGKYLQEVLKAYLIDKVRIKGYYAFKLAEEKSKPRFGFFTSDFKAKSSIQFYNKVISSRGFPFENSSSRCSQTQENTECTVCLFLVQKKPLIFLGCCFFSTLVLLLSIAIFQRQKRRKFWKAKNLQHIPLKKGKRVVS

Binder	koff [1]	Mean E max (%) [2]	Mean EC50 [2]
16H7 variant with light chain substitution P54I (antibody, V domains shown) VH: not shown VL: SYVLTQPPSVSVAPGQTARITCGGNNIGSESVHWYQQKPGQAPVLVVYDDSDRISGIPERFSGSNSGNTATLTISRVEAGDEADYYCQVWDGNSDHVVFGGGTKLTVLG	3.5e-05 s⁻¹	112%	0.115 nM
16H7 variant with light chain substitution P54V (antibody, V domains shown) VH: not shown VL: SYVLTQPPSVSVAPGQTARITCGGNNIGSESVHWYQQKPGQAPVLVVYDDSDRVSGIPERFSGSNSGNTATLTISRVEAGDEADYYCQVWDGNSDHVVFGGGTKLTVLG	4.1e-05 s⁻¹	109%	0.11 nM
16H7 variant with light chain substitution P54L (antibody, V domains shown) VH: not shown VL: SYVLTQPPSVSVAPGQTARITCGGNNIGSESVHWYQQKPGQAPVLVVYDDSDRLSGIPERFSGSNSGNTATLTISRVEAGDEADYYCQVWDGNSDHVVFGGGTKLTVLG	9.6e-05 s⁻¹	108%	0.133 nM
16H7 variant with light chain substitution P54W (antibody, V domains shown) VH: not shown VL: SYVLTQPPSVSVAPGQTARITCGGNNIGSESVHWYQQKPGQAPVLVVYDDSDRWSGIPERFSGSNSGNTATLTISRVEAGDEADYYCQVWDGNSDHVVFGGGTKLTVLG	0.00017 s⁻¹	98%	0.091 nM
16H7 variant with light chain substitution P54T (antibody, V domains shown) VH: not shown VL: SYVLTQPPSVSVAPGQTARITCGGNNIGSESVHWYQQKPGQAPVLVVYDDSDRTSGIPERFSGSNSGNTATLTISRVEAGDEADYYCQVWDGNSDHVVFGGGTKLTVLG	0.00018 s⁻¹	108%	0.113 nM
16H7 variant with light chain substitution R53C (antibody, V domains shown) VH: not shown VL: SYVLTQPPSVSVAPGQTARITCGGNNIGSESVHWYQQKPGQAPVLVVYDDSDCPSGIPERFSGSNSGNTATLTISRVEAGDEADYYCQVWDGNSDHVVFGGGTKLTVLG	0.00044 s⁻¹	107%	0.147 nM
16H7 variant with light chain substitution P54K (antibody, V domains shown) VH: not shown VL: SYVLTQPPSVSVAPGQTARITCGGNNIGSESVHWYQQKPGQAPVLVVYDDSDRKSGIPERFSGSNSGNTATLTISRVEAGDEADYYCQVWDGNSDHVVFGGGTKLTVLG	0.00016 s⁻¹	100%	0.131 nM
16H7 variant with light chain substitution R53S (antibody, V domains shown) VH: not shown VL: SYVLTQPPSVSVAPGQTARITCGGNNIGSESVHWYQQKPGQAPVLVVYDDSDSPSGIPERFSGSNSGNTATLTISRVEAGDEADYYCQVWDGNSDHVVFGGGTKLTVLG	0.00029 s⁻¹	105%	0.113 nM
16H7 variant with light chain substitution R53H (antibody, V domains shown) VH: not shown VL: SYVLTQPPSVSVAPGQTARITCGGNNIGSESVHWYQQKPGQAPVLVVYDDSDHPSGIPERFSGSNSGNTATLTISRVEAGDEADYYCQVWDGNSDHVVFGGGTKLTVLG	0.00015 s⁻¹	103%	0.153 nM
16H7 variant with light chain substitution S51C (antibody, V domains shown) VH: not shown VL: SYVLTQPPSVSVAPGQTARITCGGNNIGSESVHWYQQKPGQAPVLVVYDDCDRPSGIPERFSGSNSGNTATLTISRVEAGDEADYYCQVWDGNSDHVVFGGGTKLTVLG	4.7e-05 s⁻¹	112%	0.147 nM
16H7 variant with light chain substitution P54Y (antibody, V domains shown) VH: not shown VL: SYVLTQPPSVSVAPGQTARITCGGNNIGSESVHWYQQKPGQAPVLVVYDDSDRYSGIPERFSGSNSGNTATLTISRVEAGDEADYYCQVWDGNSDHVVFGGGTKLTVLG	8.3e-05 s⁻¹	110%	0.15 nM
16H7 variant with light chain substitution R53I (antibody, V domains shown) VH: not shown VL: SYVLTQPPSVSVAPGQTARITCGGNNIGSESVHWYQQKPGQAPVLVVYDDSDIPSGIPERFSGSNSGNTATLTISRVEAGDEADYYCQVWDGNSDHVVFGGGTKLTVLG	1.7e-05 s⁻¹	100%	0.151 nM
16H7 variant with light chain substitution R53K (antibody, V domains shown) VH: not shown VL: SYVLTQPPSVSVAPGQTARITCGGNNIGSESVHWYQQKPGQAPVLVVYDDSDKPSGIPERFSGSNSGNTATLTISRVEAGDEADYYCQVWDGNSDHVVFGGGTKLTVLG	4e-05 s⁻¹	98%	0.114 nM
16H7 variant with light chain substitution R53P (antibody, V domains shown) VH: not shown VL: SYVLTQPPSVSVAPGQTARITCGGNNIGSESVHWYQQKPGQAPVLVVYDDSDPPSGIPERFSGSNSGNTATLTISRVEAGDEADYYCQVWDGNSDHVVFGGGTKLTVLG	0.00028 s⁻¹	92%	0.126 nM
16H7 variant with light chain substitution R53M (antibody, V domains shown) VH: not shown VL: SYVLTQPPSVSVAPGQTARITCGGNNIGSESVHWYQQKPGQAPVLVVYDDSDMPSGIPERFSGSNSGNTATLTISRVEAGDEADYYCQVWDGNSDHVVFGGGTKLTVLG	0.00018 s⁻¹	95%	0.099 nM
16H7 variant with light chain substitution P54N (antibody, V domains shown) VH: not shown VL: SYVLTQPPSVSVAPGQTARITCGGNNIGSESVHWYQQKPGQAPVLVVYDDSDRNSGIPERFSGSNSGNTATLTISRVEAGDEADYYCQVWDGNSDHVVFGGGTKLTVLG	0.00014 s⁻¹	105%	0.15 nM
16H7 variant with light chain substitution R53T (antibody, V domains shown) VH: not shown VL: SYVLTQPPSVSVAPGQTARITCGGNNIGSESVHWYQQKPGQAPVLVVYDDSDTPSGIPERFSGSNSGNTATLTISRVEAGDEADYYCQVWDGNSDHVVFGGGTKLTVLG	8.7e-05 s⁻¹	109%	0.134 nM
16H7 variant with light chain substitution R53L (antibody, V domains shown) VH: not shown VL: SYVLTQPPSVSVAPGQTARITCGGNNIGSESVHWYQQKPGQAPVLVVYDDSDLPSGIPERFSGSNSGNTATLTISRVEAGDEADYYCQVWDGNSDHVVFGGGTKLTVLG	2e-05 s⁻¹	106%	0.151 nM
16H7 variant with light chain substitution S51A (antibody, V domains shown) VH: not shown VL: SYVLTQPPSVSVAPGQTARITCGGNNIGSESVHWYQQKPGQAPVLVVYDDADRPSGIPERFSGSNSGNTATLTISRVEAGDEADYYCQVWDGNSDHVVFGGGTKLTVLG	4.7e-05 s⁻¹	109%	0.123 nM
16H7 variant with light chain substitution R53A (antibody, V domains shown) VH: not shown VL: SYVLTQPPSVSVAPGQTARITCGGNNIGSESVHWYQQKPGQAPVLVVYDDSDAPSGIPERFSGSNSGNTATLTISRVEAGDEADYYCQVWDGNSDHVVFGGGTKLTVLG	0.0002 s⁻¹	89%	0.132 nM
16H7 variant with light chain substitution R53Q (antibody, V domains shown) VH: not shown VL: SYVLTQPPSVSVAPGQTARITCGGNNIGSESVHWYQQKPGQAPVLVVYDDSDQPSGIPERFSGSNSGNTATLTISRVEAGDEADYYCQVWDGNSDHVVFGGGTKLTVLG	0.00024 s⁻¹	100%	0.131 nM
16H7 variant with light chain substitution P54M (antibody, V domains shown) VH: not shown VL: SYVLTQPPSVSVAPGQTARITCGGNNIGSESVHWYQQKPGQAPVLVVYDDSDRMSGIPERFSGSNSGNTATLTISRVEAGDEADYYCQVWDGNSDHVVFGGGTKLTVLG	3.2e-05 s⁻¹	98%	0.087 nM
16H7 variant with light chain substitution P54S (antibody, V domains shown) VH: not shown VL: SYVLTQPPSVSVAPGQTARITCGGNNIGSESVHWYQQKPGQAPVLVVYDDSDRSSGIPERFSGSNSGNTATLTISRVEAGDEADYYCQVWDGNSDHVVFGGGTKLTVLG	7.9e-05 s⁻¹	102%	0.103 nM

From patent US20220010021A1 (Sanofi, published 2022)
